Experimental data from paper PMC12455937, “Interaction of West Nile virus NS5 with orthoflavivirus SLA RNAs and their effects on viral replication and inhibition” (Journal of Virology, 2025).
Several values for one entry are separate records, joined by “and”; a condition that tells them apart may be missing. Equal entries are not always repeated.

Target: the molecule itself
Assay: mass photometry; NS5 alone at 20 nM in MP buffer (50 mM HEPES, pH 7.5, 40 mM NaCl, 10 mM MgCl2); TwoMP (Refeyn); DENV NS3 and NS5 as mass standards; oligomers assigned from peak masses

B1: Full-length lineage II WNV NS5 (enzyme)
chain: not shown
notes: also called full-length NS5; viral polymerase
In the case of B1, the “stoichiometry N” value is reported as 2 and 3 and 4.
